“Also recorded” adds a separate entry of the source.

Series [1] is described as follows: ITC of FGF interaction with Sucrose Octasulfate (SOS). It counts as binding. From the text: FIGS. 1A-1D: Structure-guided design of the FGF1^ΔHBS construct. (FIG. 1A) Expanded view of the hydrogen bonding interactions (dashed lines) between the HS-binding site of FGF2 and heparin hexasaccharide as observed in the crystal structure. FGF2 is shown as a ribbon diagram with HS-interacting residues rendered in sticks. The three FGF2 residues namely, K128, R129 and K134 that make important hydrogen bonding with HS are boxed. The corresponding three residues in FGF1 are K127, K128 and K133 which were mutated to aspartic acid, glutamine and valine, respectively, to engineer the FGF1ΔHBS construct; (FIG. 1B) FGF1^ΔHBS elutes as a single symmetric peak at its predicted molecular weight from a Superdex 200 sizing column. Retention times of protein standards are given above the chromatogram. (FIG. 1C and FIG. 1D) Analysis of the interactions of wildtype FGF1 and FGF1^ΔHBS with SOS. Indicated solutions of SOS were injected into solutions of wildtype FGF1 or FGF1ΔHBS in the cell. […]
To test the impact of the mutations on HS-binding ability of FGF1, isothermal titration calorimetry (ITC) was used to compare the interactions of native FGF1 and FGF1^ΔHBS with Sucrose Octasulfate (SOS), a known surrogate for HS. […] Next, the cardioprotective potential of FGF1^ΔHBS mutant when administered immediately upon reperfusion was evaluated in an in vivo rat model of myocardial infarction. […]

For another series, the system named is wildtype mouse hearts. In words: Ex vivo model, low-flow ischemia and reperfusion. As to conditions: 10 μg immediately at reperfusion; 60 minutes low-flow ischemia, 60 minutes reperfusion. From the text: FIGS. 12A-12B. […] Left bar is vehicle-treated and right bar is FGF2-treated wildtype mouse hearts.
The nature of series [2]: Pharmacokinetic evaluation after intraperitoneal dose (serum ELISA). As to conditions: single intraperitoneal dose 0.5 mg/kg. It counts as in vivo, rat. The protocol:
CVR-2016-799R1 signaling and the other two sets were to evaluate the pharmacokinetic properties of native FGF1 and modified FGF1 (FGF1^ΔHBS). The first set of experiments was for the ischemia/reperfusion study in which animals were divided into six groups as follows: (1) saline group: saline treatment given intravenously for 10 minutes immediately upon reperfusion, (2) heparin group: heparin, 60 U/kg intravenous (i.v.) bolus, given immediately at reperfusion+12 U/kg/hr i.v. infusion for 120 minutes of reperfusion, (3) FGF1 group: FGF1, 10 μg/kg i.v. infusion, given for 10 minutes immediately at reperfusion, (4) FGF1+heparin: heparin, 60 U/kg bolus, given immediately upon reperfusion followed by FGF1, 10 μg/kg i.v. infusion, given for 10 minutes and 12 U/kg/hr i.v. infusion given for 110 minutes of reperfusion, (5) modified FGF1 (FGF1^ΔHBS) group: FGF1^ΔHBS, 10 μg/kg i.v. infusion, given for 10 minutes, or (6) FGF1^ΔHBS+heparin: heparin, 60 U/kg bolus, given immediately at reperfusion followed by FGF1^ΔHBS, 10 μg/kg i.v. infusion, given for 10 minutes and 12 U/kg/hr i.v. infusion for 110 minutes of reperfusion. All rats were subjected to 30 minutes of regional ischemia and 120 minutes of reperfusion. Drugs were administered at the onset of reperfusion via the jugular vein (FIG. 2A). […] A total of ninety-six rats was completed for the I/R study. Sample size for each group ranged from 9-16 depending on the power analysis. A total of thirty-five rats were excluded from the study based on the lack of cyanosis of the heart or typical elevation of the ST segment in the electrocardiogram during ischemia, and death from malignant arrhythmia. For the biodistribution or FGF1 signaling study, rats were randomly divided into six groups as described above (FIG. 2B). Following drug treatment (immediately following 15 minutes of treatment or 105 minutes post-treatment at the point which mimics the length of time of reperfusion), solid organs and blood (see sections “Tissue collection for exogenous FGF1 biodistribution” and “Cardiac preparation to detect the activation of FGF1 downstream molecules”) were collected. A total of 33 rats were used for biodistribution and FGF1 signaling studies, and 3 rats were excluded due to anesthetic overdose. Also, a total of 8 plasma samples were excluded because of hemolysis. For elimination half-life of native FGF1 and FGF1^ΔHBS, 12 rats were randomly divided into two groups and treated intraperitoneally with either FGF1 form as described in the section “Pharmacokinetic evaluation of exogenous FGF1 or FGF1^ΔHBS ”.
The in vivo half-life of FGF1 or FGF^ΔHBS (given as a single, intraperitoneal dose of
0.5 mg/kg body weight) was assessed, using the human FGF1 immunoassay ELISA kit (R&D System, MN), from blood (i.e., serum) collected at varying times as described previously. The pharmacokinetic parameters of FGF1 or FGF1^ΔHBS were analyzed using the Drug and […]
For orientation: In an ELISA, binding on a coated surface is turned into a signal by an enzyme label.

“FGF1: native recombinant human fibroblast growth factor 1” showed a Kd in series [1] of 4 µM. Further, in the series with wildtype mouse hearts, the “contractile function (+dP/dt) compared to vehicle (in words)” value is “significant enhancement of contractile function” and the “infarct size compared to vehicle (in words)” value is given as “significant reduction in infarct size”.

B1: FGF1^ΔHBS: FGF1 mutant carrying the K127D/K128Q/K133V triple mutation in its HS-binding region; reduced heparin-binding affinity (protein)
chain: MAEGEITTFTALTEKFNLPPGNYKKPKLLYCSNGGHFLRILPDGTVDGTRDRSDQHIQLQLSAESVGEVYIKSTETGQYLAMDTDGLLYGSQTPNEECLFLERLEENHYNTYISKKHAEKNWFVGLDQNGSCVRGPRTHYGQKAILFLPLPVSSD
On to B1, for which the “binding to SOS (in words)” value in series [1] is “negligible; also recorded: fails to bind SOS”. For the same molecule, the “absorption phase half-life (in words)” value in series [2] (non-compartmental) is “not significantly different from FGF1”. The “elimination phase half-life (in words)” value in series [2] (non-compartmental, 0.5 mg/kg) is “not significantly different from FGF1”. In series [2] (serum), the “area-under-curve (AUC), fold greater than FGF1” value is 2 fold and the “maximum serum concentration (Cmax), fold greater than FGF1” value worked out at 4 fold. Besides, in series [2] (0.5 mg/kg), the “time to reach maximum serum concentration (Tmax) (in words)” value is recorded as “reached earlier than with FGF1; also recorded: relatively fast”.

The term Kd denotes the equilibrium constant for the complex coming apart.

These data come from US20200384079A1, “Compositions of Fibroblast Growth Factor LIgands and Methods of Treating Patients Undergoing Ischemia-Reperfusion Therapy” (University of Cincinnati, priority 2017, published 2020).
